Test results: patent US20120183570A1 (WASHINGTON STATE UNIVERSITY, published 2012)

What was measured:
[1] = target: T1, Human plasma fibronectin (Fn) (human, UniProt P02751-9 32-2240, limits assumed); assay: ELISA, Fn on peptide-coated wells
T1 construct: It is treated as the same molecule; also called full-length Fn

[2] = target: T2, Fn N-terminal domain (NTD), 30 kDa fragment (human, UniProt P02751 32-290); assay: ELISA on NTD-coated wells, anti-GST detection
T2 construct: domain: N-terminal domain (NTD), FN1 1-5; also called 30 kDa NTD; 30-kDa proteolytic fragment from human Fn

[3] = target: T3, Ovalbumin (UniProt P01012 2-386); assay: ELISA on ovalbumin-coated wells, anti-GST detection
T3 construct: also called ovalbumin (negative control)
T3 sequence: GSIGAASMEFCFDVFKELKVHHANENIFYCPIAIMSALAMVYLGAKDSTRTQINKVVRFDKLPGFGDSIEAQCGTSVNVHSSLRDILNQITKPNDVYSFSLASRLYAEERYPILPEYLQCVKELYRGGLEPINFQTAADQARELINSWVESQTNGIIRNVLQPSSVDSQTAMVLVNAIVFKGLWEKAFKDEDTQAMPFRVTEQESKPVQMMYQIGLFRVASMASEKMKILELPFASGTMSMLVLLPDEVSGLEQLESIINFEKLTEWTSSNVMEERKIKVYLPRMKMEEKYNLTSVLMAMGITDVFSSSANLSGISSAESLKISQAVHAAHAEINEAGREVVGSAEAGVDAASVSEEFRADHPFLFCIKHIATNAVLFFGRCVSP

[4] = target: T4, Fn gelatin-binding domain (GBD), 40 kDa fragment (human, UniProt P02751 291-630); assay: ELISA, GST fusion on GBD-coated wells (FIG. 22)
T4 construct: also called Fn-GBD

[5] = target: T4, Fn gelatin-binding domain (GBD), 40 kDa …; assay: ELISA on GBD-coated wells, anti-GST detection
[6] = target: T1, Human plasma fibronectin (Fn); assay: ELISAs with GST domain fusions and Fn
[7] = target: Bovine serum albumin (BSA) (bovine, UniProt P02769 25-607); assay: ELISA on BSA-coated wells, anti-GST detection
Bovine serum albumin (BSA), sequence (P02769 25-607 limits assumed): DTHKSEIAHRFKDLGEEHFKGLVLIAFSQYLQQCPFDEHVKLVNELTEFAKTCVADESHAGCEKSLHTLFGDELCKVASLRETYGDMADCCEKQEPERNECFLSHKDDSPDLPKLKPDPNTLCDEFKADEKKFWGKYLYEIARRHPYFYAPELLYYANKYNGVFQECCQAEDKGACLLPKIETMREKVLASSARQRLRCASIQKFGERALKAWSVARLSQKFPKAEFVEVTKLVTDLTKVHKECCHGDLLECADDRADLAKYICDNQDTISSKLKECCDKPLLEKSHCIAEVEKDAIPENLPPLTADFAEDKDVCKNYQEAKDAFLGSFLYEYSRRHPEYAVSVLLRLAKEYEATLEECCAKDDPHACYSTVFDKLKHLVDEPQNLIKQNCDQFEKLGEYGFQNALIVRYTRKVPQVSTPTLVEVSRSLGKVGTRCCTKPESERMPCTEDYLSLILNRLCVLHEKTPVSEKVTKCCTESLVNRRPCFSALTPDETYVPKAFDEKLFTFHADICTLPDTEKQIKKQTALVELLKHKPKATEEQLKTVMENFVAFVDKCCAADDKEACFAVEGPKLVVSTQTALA

T1 sequence (P02751 other isoform, or with tags, fused parts or gaps limits assumed): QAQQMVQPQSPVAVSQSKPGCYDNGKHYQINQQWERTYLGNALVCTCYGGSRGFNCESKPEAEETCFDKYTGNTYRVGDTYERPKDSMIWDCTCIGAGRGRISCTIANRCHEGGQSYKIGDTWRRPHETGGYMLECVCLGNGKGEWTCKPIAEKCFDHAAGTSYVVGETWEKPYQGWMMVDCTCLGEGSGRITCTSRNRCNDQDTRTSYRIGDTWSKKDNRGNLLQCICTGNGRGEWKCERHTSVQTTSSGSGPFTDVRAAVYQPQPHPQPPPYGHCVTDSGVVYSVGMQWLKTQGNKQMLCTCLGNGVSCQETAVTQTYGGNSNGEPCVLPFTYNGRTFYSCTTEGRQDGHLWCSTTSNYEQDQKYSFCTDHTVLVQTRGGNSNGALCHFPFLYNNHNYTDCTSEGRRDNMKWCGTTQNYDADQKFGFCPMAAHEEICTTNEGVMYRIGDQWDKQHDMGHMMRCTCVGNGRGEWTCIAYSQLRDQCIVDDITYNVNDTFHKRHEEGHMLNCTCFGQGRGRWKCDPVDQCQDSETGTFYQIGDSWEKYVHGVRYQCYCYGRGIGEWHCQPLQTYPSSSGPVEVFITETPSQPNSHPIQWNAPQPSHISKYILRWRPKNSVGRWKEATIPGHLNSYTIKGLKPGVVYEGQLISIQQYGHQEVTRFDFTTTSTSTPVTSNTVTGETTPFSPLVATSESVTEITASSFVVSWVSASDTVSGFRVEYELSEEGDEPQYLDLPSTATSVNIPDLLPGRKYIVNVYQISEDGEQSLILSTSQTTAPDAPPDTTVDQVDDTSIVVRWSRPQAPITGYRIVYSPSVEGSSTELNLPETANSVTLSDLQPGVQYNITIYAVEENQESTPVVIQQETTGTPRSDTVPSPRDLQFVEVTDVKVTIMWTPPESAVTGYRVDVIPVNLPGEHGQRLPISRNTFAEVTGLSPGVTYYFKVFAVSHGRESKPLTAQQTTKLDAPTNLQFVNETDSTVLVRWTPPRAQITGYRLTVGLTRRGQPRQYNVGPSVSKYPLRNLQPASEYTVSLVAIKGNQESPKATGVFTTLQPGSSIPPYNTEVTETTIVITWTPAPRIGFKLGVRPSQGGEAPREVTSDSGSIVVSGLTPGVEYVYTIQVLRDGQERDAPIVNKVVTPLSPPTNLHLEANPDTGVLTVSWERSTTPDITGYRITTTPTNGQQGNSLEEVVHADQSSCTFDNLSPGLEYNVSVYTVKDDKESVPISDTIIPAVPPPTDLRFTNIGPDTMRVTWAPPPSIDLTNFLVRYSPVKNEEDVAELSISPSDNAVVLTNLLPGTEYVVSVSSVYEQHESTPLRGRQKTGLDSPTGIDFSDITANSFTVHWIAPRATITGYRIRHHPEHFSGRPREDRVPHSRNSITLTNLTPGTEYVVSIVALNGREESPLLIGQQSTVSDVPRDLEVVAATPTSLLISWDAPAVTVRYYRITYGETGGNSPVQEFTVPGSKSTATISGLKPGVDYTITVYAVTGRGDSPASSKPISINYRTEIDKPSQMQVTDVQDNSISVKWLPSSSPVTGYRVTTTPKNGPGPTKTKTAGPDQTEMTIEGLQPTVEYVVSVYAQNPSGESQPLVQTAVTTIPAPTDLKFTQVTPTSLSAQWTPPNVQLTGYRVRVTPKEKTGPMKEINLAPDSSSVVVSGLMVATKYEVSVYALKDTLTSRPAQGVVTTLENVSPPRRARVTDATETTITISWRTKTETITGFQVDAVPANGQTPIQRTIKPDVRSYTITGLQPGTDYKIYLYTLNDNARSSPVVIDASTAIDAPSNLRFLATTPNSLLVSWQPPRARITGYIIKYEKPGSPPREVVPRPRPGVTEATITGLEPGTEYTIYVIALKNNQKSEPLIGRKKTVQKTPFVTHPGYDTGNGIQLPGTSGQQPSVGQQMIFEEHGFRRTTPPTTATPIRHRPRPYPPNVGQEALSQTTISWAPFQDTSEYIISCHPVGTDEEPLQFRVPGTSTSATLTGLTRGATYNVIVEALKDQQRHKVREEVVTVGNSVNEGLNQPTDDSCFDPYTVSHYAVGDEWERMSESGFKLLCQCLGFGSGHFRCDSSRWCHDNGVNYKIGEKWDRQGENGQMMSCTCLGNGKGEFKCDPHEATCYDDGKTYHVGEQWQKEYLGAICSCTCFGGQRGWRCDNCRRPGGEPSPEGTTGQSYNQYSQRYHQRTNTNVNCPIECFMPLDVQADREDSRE
T4 sequence (P02751 291-630 limits assumed): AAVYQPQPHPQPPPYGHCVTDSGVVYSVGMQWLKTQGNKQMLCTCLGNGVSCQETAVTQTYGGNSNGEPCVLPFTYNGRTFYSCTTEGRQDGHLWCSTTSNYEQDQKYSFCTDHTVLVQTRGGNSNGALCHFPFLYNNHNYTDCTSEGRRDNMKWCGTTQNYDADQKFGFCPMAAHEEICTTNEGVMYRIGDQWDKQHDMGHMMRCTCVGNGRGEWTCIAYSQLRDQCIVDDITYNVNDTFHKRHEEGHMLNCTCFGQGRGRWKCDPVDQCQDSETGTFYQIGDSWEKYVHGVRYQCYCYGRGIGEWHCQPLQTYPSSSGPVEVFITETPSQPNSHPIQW
T2 sequence (P02751 32-290 limits assumed): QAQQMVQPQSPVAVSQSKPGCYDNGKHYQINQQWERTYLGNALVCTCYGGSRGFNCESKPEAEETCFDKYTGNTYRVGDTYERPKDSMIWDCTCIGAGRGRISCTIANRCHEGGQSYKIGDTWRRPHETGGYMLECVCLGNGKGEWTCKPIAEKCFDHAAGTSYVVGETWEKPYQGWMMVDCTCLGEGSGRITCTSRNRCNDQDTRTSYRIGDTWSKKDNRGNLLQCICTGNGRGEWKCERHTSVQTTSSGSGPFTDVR

FVQAVTNLPNRIKLIWR (Synthetic peptide) [FlpA peptide P7 (F141-R157)]: no binding [1].

B1: FlpA-D2-GST (aa135-226) (other)
chain: RLEAVPFVQAVTNLPNRIKLIWRPHPDFRVDSYIIERTKGDDKEFKKIAEVKNRLNAEYIDSDLKPNENSSYRIIAVSFNGIKSGSSQVVSS
notes: also called FlpA domain 2; not shown: glutathione S-transferase (GST) tag of vector pGEX-5x-1, N-terminal
B1: no binding (tested: up to 1000 nM) [2]; no binding (tested: up to 1000 nM) [3]; binds [4].

KKIAEVKNRLNAEYIDSDLKPNENSSYRII (Synthetic 30mer of FlpA-D2) [FlpA peptide P4 (K180-I209)]: no binding [1].

B2: FlpA-D1-GST (aa35-132) (other)
chain: PAVNESLPKVESLKSLSDMSNIAFEWEPLYNENIKGFYLYRSSDENPDFKLVGTIKDKFQTHYVDTKLEPGTKYRYMMKSFNEQGQISEDGKVIEVST
notes: not shown: glutathione S-transferase (GST) tag of vector pGEX-5x-1, N-terminal
B2: no binding (tested: up to 1000 nM) [5]; no binding [6].

B3: FlpA-GST (aa35-410) (other)
chain: PAVNESLPKVESLKSLSDMSNIAFEWEPLYNENIKGFYLYRSSDENPDFKLVGTIKDKFQTHYVDTKLEPGTKYRYMMKSFNEQGQISEDGKVIEVSTAPRLEAVPFVQAVTNLPNRIKLIWRPHPDFRVDSYIIERTKGDDKEFKKIAEVKNRLNAEYIDSDLKPNENSSYRIIAVSFNGIKSGSSQVVSSTSKALPPQVEHLSASTDGSSKIILTWDAPTYEDFSYYKVYSTSSSFLPFSVLAKTDKNSYEDIVEGAGKSKYYKVTMVDKDGLESPMPKDGVEGKTLGNPLAPSIILAQSTSEGINLEWSDNDTRAVEYEVRRYGGEQNAVFKGIKEKRLKDVKALPGVEYSYEVIAIDSAGLRSEPSSKVKAA
notes: also called full-length FlpA-GST; FlpA full-length; not shown: glutathione S-transferase (GST) tag of vector pGEX-5x-1, N-terminal
B3: no binding (tested: up to 1000 nM) [2]; no binding (tested: up to 1000 nM) [3]; no binding [7].

B4: FlpA peptide P5 (D195-V224) (peptide)
peptide: DSDLKPNENSSYRIIAVSFNGIKSGSSQVV
notes: Synthetic 30mer of FlpA-D2; Used as a negative control in later ELISAs
B4: no binding [1].

B5: CadF peptide FRLS- (aa118-133) (peptide)
peptide: YDNKSGGFGHYGAGVK
notes: Synthetic negative control peptide; also called CadF FRLS^-
B5: no binding [1].

B6: FlpA-D3-GST (aa232-410) (other)
chain: PPQVEHLSASTDGSSKIILTWDAPTYEDFSYYKVYSTSSSFLPFSVLAKTDKNSYEDIVEGAGKSKYYKVTMVDKDGLESPMPKDGVEGKTLGNPLAPSIILAQSTSEGINLEWSDNDTRAVEYEVRRYGGEQNAVFKGIKEKRLKDVKALPGVEYSYEVIAIDSAGLRSEPSSKVKAA
notes: as for B2
B6: no binding (tested: up to 1000 nM) [5]; no binding [6].

DSYIIERTKGDDKEFKKIAEVKNRLNAEYI (Synthetic 30mer of FlpA-D2) [FlpA peptide P3 (D165-I194)]: no binding (tested: Fn up to 20 µg/ml) [1].
